Drawing on patent US20200190189A1 (Adimab, published 2020), this text covers Kd for five molecules.

Residue numbers refer to the chain shown, from its start.

The chains are these.
T1: Human CD3εδ heterodimeric Fc fusion (Hu CD3εδ Fc) (human)
T1 chain 1: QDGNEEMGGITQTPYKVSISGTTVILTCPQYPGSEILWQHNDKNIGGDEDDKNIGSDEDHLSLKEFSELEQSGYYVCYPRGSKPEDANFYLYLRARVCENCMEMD
T1 chain 2: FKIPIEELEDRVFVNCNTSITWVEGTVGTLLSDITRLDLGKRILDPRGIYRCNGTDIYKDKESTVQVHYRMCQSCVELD

T2: Cynomolgus CD3εδ heterodimeric Fc fusion (Cy CD3εδ Fc) (cynomolgus)
T2 chain 1: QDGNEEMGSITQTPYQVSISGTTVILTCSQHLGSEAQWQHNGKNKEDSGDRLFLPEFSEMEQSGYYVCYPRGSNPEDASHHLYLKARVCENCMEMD
T2 chain 2: T1 chain 2 with I5V, N15K, I20V, S32T, D33N, I34N, T64A, S74N

B1: ADI-22523 IgG1 (antibody, V domains shown)
VH: QVQLVQSGAEVKKPGASVKVSCKASGFNIKDYYMHWVRQAPGQRLEWMGWIDLENGNTIYDPKFQGRVTITRDTSASTAYMELSSLRSEDTAVYYCARDGYGRYFYDVWGQGTLVTVSS
VL: DIVMTQSPDSLAVSLGERATINCKSSQSLLNSRTGKNYLAWYQQKPGQPPKLLIYWASTRESGVPDRFSGSGSGTDFTLTISSLQAEDVAVYYCKQSYSRRTFGGGTKVEIK
B2: ADI-26906 IgG1 (antibody, V domains shown)
VH: B1 VH with G56A, P62A, G100A
VL: B1 VL with S32A
B3: ADI-26913 IgG1 (antibody, V domains shown)
VH: B1 VH with G56A, P62A, G100Q
VL: B1 VL with S32A
B4: ADI-26908 IgG1 (antibody, V domains shown)
VH: B1 VH with N55E, P62A, G100A
VL: B1 VL with S32A
B5: ADI-26915 IgG1 (antibody, V domains shown)
VH: B1 VH with N55E, P62A, G100V, Y101L
VL: B1 VL with S32A

One assay has as its target T1, Human CD3εδ heterodimeric Fc fusion (Hu …). Nature of the assay: IgG, avid; method not named at the table (ForteBio BLI in Methods). (In general: Biolayer interferometry detects binding as a change in optical thickness at a sensor tip.)
As to B1, binding was put at a Kd of 0.2 nM.

Turning to B2, the dissociation constant (Kd) (as a rule, a measure of binding affinity in units of concentration) was 1.6 nM.

B3 had a Kd of 2.2 nM.

For the molecule B4, the equilibrium dissociation constant (Kd) is 1.5 nM.

Consider B5, for which the Kd came to 3.3 nM.

Another assay addresses T2, Cynomolgus CD3εδ heterodimeric Fc …. Described as above.
B1 gave a Kd of 0.22 nM.

Turning to B2, the affinity, expressed as Kd, was 0.25 nM.

In turn, B3 showed a Kd of 0.4 nM.

B4: binding was characterised by a dissociation constant (Kd) of 0.31 nM.

In the case of B5, the dissociation constant (Kd) worked out at 2.6 nM.
